Experimental data reported in paper PMC3779530 (Innate immunity, 2013).
Read-outs that look alike come from different tables or passages of the source.

B1: metabolically labeled LOS·MD-2 (monomeric complex of Neisseria meningitidis lipooligosaccharide and recombinant human His6-MD-2) (ligand)
chain: QKQYWVCNSSDASISYTYCDKMQYPISINVNPCIELKRSKGLLHIFYIPRRDLKQLYFNLYITVNTMNLPKRKEVICRGSDDDYSFCRALKGETVNTTISFSFKGIKFSKGKYKCVVEAISGSPEEMLFCLEFVILHQPNSN

Columns and labels:
[1] = biological target: TLR4 ECD (Homo sapiens) (UniProt O00206); settings: cited from earlier work
Target sequence in this assay (O00206 24-631): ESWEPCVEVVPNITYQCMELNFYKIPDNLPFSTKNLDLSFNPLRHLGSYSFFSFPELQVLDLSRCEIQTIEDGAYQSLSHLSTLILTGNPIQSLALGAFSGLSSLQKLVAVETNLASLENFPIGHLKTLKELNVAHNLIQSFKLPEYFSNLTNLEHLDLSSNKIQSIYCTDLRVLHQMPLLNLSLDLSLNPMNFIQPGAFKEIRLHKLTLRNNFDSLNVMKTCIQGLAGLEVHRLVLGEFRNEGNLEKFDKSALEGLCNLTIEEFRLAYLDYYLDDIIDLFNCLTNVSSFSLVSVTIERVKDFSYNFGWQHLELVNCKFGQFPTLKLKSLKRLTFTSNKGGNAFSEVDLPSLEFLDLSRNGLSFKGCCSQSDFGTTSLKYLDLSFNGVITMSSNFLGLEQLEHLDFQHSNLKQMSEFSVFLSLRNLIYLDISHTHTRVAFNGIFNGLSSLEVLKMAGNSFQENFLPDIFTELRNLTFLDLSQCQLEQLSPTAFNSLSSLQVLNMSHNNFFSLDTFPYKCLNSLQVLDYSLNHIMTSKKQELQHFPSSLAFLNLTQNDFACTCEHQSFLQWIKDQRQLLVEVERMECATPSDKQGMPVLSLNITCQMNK

[2] = biological target: TLR4 ECD (Homo sapiens) (UniProt O00206); settings: cited from earlier work; remark: listed apart in the source
Target sequence in this assay (O00206 24-631 D299G/T399I): as the sequence (O00206 24-631) above, with D276G, T376I counted along it

[3] = biological target: full-length wild-type TLR4 on transiently transfected HEK293T cells (human, UniProt O00206 24-839); assay: radioligand binding
[4] = biological target: FLAG-tagged TLR4 ectodomain-vlr-Fc protein (not stated | hagfish) (UniProt O00206); assay: radioligand binding

Chain of full-length wild-type TLR4 on transiently transfected HEK293T cells (O00206 24-839): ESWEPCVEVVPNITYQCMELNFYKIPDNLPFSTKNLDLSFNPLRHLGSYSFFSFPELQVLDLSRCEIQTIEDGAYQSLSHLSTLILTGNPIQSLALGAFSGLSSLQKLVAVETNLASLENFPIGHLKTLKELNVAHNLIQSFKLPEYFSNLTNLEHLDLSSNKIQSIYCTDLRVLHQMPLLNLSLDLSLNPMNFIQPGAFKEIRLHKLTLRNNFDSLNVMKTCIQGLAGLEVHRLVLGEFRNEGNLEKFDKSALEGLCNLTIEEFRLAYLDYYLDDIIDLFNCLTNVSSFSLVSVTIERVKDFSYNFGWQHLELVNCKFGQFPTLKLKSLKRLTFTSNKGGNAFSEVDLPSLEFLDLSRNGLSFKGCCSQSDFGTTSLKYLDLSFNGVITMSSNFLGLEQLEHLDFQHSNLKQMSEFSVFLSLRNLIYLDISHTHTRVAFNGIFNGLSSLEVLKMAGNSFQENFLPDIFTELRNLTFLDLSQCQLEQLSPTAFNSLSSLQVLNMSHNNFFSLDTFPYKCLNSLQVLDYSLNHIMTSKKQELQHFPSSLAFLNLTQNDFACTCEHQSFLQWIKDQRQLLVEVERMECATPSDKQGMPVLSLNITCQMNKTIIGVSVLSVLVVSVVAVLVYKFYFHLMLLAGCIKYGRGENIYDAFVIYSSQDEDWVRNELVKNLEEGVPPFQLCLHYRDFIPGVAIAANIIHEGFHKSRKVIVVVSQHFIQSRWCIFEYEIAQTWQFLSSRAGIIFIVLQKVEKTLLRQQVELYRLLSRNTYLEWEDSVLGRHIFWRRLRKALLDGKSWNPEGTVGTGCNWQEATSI

| Molecule | Kd [1] | Kd [2] | Kd [3] | Kd [4] |
| --- | --- | --- | --- | --- |
| LOS·MD-2 (from UniProt Q9Y6Y9) | 0.2 nM | 0.2 nM |  |  |
| B1 |  |  | 0.367 ± 0.136 nM | 0.117 nM |
